Results on two molecules are retold here after patent US20260097113A1 (Pfizer, published 2026).

For experiment [1], the target named is RSV A + RSV B bivalent composition (RSV subtype A; RSV subtype B). Nature of the experiment: AM14 Fab titration by SEC; Target cycle; 1 M 25°C (second value). For orientation: Size exclusion chromatography separates by hydrodynamic size, large species first.
Experiment [2] shares this target. Nature of the experiment: AM14 Fab titration by SEC; High-Slow 1 cycle; 1 M 40°C.
Experiment [3] shares this target. The experiment can be described thus: AM14 Fab titration by SEC; High-Slow 1 cycle; 3 M 40°C.
Experiment [4] has the same target. The experiment can be described thus: AM14 Fab titration by SEC; Low-Fast cycle; 3 M 40°C (second value).
Experiment [5] has the same target. Nature of the experiment: AM14 Fab titration by SEC; High-Slow 2 cycle; 8 M 2-8°C.
Experiment [6] shares this target. Nature of the experiment: AM14 Fab titration by SEC; High-Slow 1 cycle; 1 M 2-8°C (second value).
Experiment [7] shares this target. Nature of the experiment: AM14 Fab titration by SEC; Target cycle; 3 M 40°C.
Experiment [8] concerns the target T1, RSV F protein of subtype A comprising a polypeptide of SEQ ID NO: 1 and a polypeptide of SEQ ID NO: 2 (RSV subtype A, UniProt P11209 137-513; P03420 26-109).
T1 construct: Stabilized prefusion F trimer made of three F2-F1 heterodimers; Produced recombinantly in CHO cells; also called RSV A; RSVA
T1 chain 1: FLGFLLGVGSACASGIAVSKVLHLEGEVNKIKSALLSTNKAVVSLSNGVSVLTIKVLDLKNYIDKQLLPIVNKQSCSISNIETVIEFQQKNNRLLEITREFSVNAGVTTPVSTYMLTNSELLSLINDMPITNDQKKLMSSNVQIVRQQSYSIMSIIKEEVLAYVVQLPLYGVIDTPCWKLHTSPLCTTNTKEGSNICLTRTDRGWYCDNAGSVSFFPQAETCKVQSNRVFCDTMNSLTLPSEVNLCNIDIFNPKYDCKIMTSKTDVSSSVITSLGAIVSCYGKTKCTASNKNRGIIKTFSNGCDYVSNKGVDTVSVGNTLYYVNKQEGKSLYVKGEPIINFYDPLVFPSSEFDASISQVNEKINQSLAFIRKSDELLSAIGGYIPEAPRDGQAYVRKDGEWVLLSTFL
T1 chain 2: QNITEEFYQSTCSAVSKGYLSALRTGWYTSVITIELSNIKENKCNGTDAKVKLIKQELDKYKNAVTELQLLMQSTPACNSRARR
Nature of the experiment: AM14 ELISA; F16 (pH 6, 0 mM NaCl, 0% sucrose); 2 wk 5°C.

For experiment [9], the target named is T1, RSV F protein of subtype A comprising a …. The experiment can be described thus: AM14 ELISA; F18 (pH 7, 50 mM NaCl, 3% sucrose + 3% mannitol); 1 wk 25°C. (In general: An ELISA detects its analyte on a solid surface through an enzyme-linked reagent.)
Experiment [10] shares this target. The experiment can be described thus: AM14 ELISA; F3 (pH 8, 0 mM NaCl, 9% sucrose); T0.
For experiment [11] the target is unchanged. Nature of the experiment: AM14 ELISA; F14 (pH 7, 50 mM NaCl, 4.5% sucrose); T0.
Experiment [12] has the same target. The experiment can be described thus: AM14 ELISA; F14 (pH 7, 50 mM NaCl, 4.5% sucrose); 1 wk 25°C.
Experiment [13] has the same target. Nature of the experiment: AM14 ELISA; F10 (pH 7, 50 mM NaCl, 4.5% sucrose); 2 wk 25°C.
For experiment [14] the target is unchanged. The experiment can be described thus: AM14 ELISA; F11 (pH 7, 50 mM NaCl, 9.0% sucrose); 2 wk 5°C.
The target is the same in experiment [15]. Nature of the experiment: AM14 ELISA; F12 (pH 8, 100 mM NaCl, 9.0% sucrose); 1 wk 25°C.
Experiment [16] has the same target. The experiment can be described thus: AM14 ELISA; F7 (pH 6, 100 mM NaCl, 0% sucrose); 1 wk 5°C.
Experiment [17] shares this target. The experiment can be described thus: AM14 ELISA; F1 (pH 8, 100 mM NaCl, 0% sucrose); 1 wk 25°C.

Turning to AM14 Fab, the Prefusion Content (%) came out at 65% in experiment [1]; 51% in experiment [2]; 52% in experiment [3]; 66% in [4]; 72% in [5]; 44% in experiment [6]. Moreover, the Prefusion Content (%) in experiment [7] amounted to 72%.

B1: AM14 (trimeric prefusion specific antibody of the AM14 ELISA) (antibody, V domains shown)
VH: EVQLVESGGGVVQPGRSLRLSCAASGFSFSHYAMHWVRQAPGKGLEWVAVISYDGENTYYADSVKGRFSISRDNSKNTVSLQMNSLRPEDTALYYCARDRIVDDYYYYGMDVWGQGATVTVSS
VL: DIQMTQSPSSLSASVGDRVTITCQASQDIKKYLNWYHQKPGKVPELLMHDASNLETGVPSRFSGRGSGTDFTLTISSLQPEDIGTYYCQQYDNLPPLTFGGGTKVEIKR
notes: Antibody as used in the AM14 ELISA, detected with an HRP-labeled secondary antibody
Take B1: the “AM14 prefusion content (%), relative to standard” value stood at 67% in [8]; 83% in experiment [9]; 95% in experiment [10]; 102% in [11]; 77% in experiment [12]; 81% in [13]. Also, the “AM14 prefusion content (%), relative to standard” value in experiment [14] came to 90%; in experiment [15], 82%; in experiment [16] it was 61%; in experiment [17] it was 112%.
